Five molecules from patent publication US20230374147A1 (HUMMINGBIRD BIOSCIENCE PTE, published 2023) can be followed below.

In experiment [1] the target is T1, Human HER3-His (Sino Biological, 10201-H08H) (human, UniProt P21860 20-643).
T1 construct: Specificity control; also called Human HERS-His
As to the kind of experiment: ELISA, coated His-tagged antigen.

Experiment [2] concerns the target T2, His-tagged cynomolgous macaque BCMA (Acro Biosystems, BCA-C52H7) (cynomolgus macaque, UniProt Q02223 1-54 (human entry)).
T2 construct: Bought protein; also called cyno BCMA; CyBCMA; not shown: His tag
As to the kind of experiment: ELISA, coated Cyno BCMA-His.

Experiment [3] addresses T3, Cyno TACI-His (Sino Biological, 90976-C08H) (cynomolgus macaque, UniProt G7PTR7 1-165).
T3 construct: Bought protein; also called cynomolgous macaque TACI; CyTACI
T3 sequence: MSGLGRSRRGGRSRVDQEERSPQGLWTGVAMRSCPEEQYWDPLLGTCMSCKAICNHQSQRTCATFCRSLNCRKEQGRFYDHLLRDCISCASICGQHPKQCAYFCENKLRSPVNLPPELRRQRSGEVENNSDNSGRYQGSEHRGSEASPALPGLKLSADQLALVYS
Kind of experiment: ELISA, coated Cyno TACI-His. (In general: In an ELISA, binding on a coated surface is turned into a signal by an enzyme label.)

The target in experiment [4] is T4, Human BCMA-His (Sino Biological, 10620-H08H) (human, UniProt Q02223 1-54).
T4 construct: not shown: His tag
T4 sequence: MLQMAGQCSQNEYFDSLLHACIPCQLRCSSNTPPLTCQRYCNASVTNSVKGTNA
As to the kind of experiment: ELISA, coated Human BCMA-His.

The target in experiment [5] is T5, recombinant his-tagged human TACI (Sinobiological cat #11937-H08H) (human, UniProt O14836 1-165).
T5 construct: Bought protein; also called Human TACI-His; huTACI; not shown: His tag
T5 sequence: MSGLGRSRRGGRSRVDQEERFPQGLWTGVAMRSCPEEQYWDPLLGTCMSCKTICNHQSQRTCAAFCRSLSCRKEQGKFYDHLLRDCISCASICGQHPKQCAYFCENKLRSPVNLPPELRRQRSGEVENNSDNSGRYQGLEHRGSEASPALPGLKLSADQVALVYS
Kind of experiment: ELISA, coated Human TACI-His.

In experiment [6] the target is T6, human BCMA expressed on cells (human, UniProt Q02223 1-184).
T6 construct: the cell line is named under assay; also called wildtype human BCMA
T6 sequence: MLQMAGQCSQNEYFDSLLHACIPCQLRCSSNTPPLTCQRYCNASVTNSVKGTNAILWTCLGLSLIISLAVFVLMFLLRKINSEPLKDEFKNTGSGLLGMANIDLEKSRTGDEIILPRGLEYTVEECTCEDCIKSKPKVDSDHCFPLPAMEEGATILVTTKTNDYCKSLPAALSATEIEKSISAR
As to the kind of experiment: flow cytometry, H929 cells (BCMA+). For orientation: In flow cytometry, cells or beads pass a laser one at a time.

For experiment [7], the target named is T6, human BCMA expressed on cells. Kind of experiment: flow cytometry, fixed RPMI 8226 cells (BCMA+, TACI+: the cells carry both targets).
Experiment [8] concerns the target T7, His-tagged human BCMA (Acro Biosystems, Cat. #BCA-H522y) (human, UniProt Q02223 1-54).
T7 construct: also called huBCMA; P1; not shown: His tag
T7 sequence: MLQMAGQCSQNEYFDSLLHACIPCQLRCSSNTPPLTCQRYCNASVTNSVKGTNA
As to the kind of experiment: HDX-MS of the 1:1 complex against free BCMA.

Experiment [9] addresses T7, His-tagged human BCMA (Acro Biosystems, …). Kind of experiment: ELISA, coated His-tagged human BCMA.
In experiment [10] the target is T5, recombinant his-tagged human TACI …. Kind of experiment: ELISA, coated His-tagged human TACI.
Experiment [11] has as its target T7, His-tagged human BCMA (Acro Biosystems, …). As to the kind of experiment: BLI, His-tagged human BCMA on HIS1K tip. (In general: In BLI a coated tip is dipped into the sample, and binding shifts an interference pattern.)
The target in experiment [12] is T8, His-tagged mouse BCMA (Acro Biosystems, BCA-M52H3) (mouse, UniProt O88472 1-49).
T8 construct: Bought protein; not shown: His tag
T8 chain: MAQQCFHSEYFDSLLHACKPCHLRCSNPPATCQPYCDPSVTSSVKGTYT
Kind of experiment: BLI, His-tagged mouse BCMA on HIS1K tip.

Experiment [13] concerns the target T7, His-tagged human BCMA (Acro Biosystems, …). As to the kind of experiment: BLI, His-tagged human BCMA on HIS1K tip; R2 0.9908.
Experiment [14] has as its target T6, human BCMA expressed on cells. As to the kind of experiment: flow cytometry, HEK293 cells stably expressing human BCMA.
In experiment [15] the target is T7, His-tagged human BCMA (Acro Biosystems, …). Kind of experiment: BLI, His-tagged human BCMA on HIS1K tip, no APRIL; R2 0.9908.
Experiment [16] has as its target T9, cynomolgous macaque BCMA expressed on CHOK1 cells.
T9 construct: also called cyno BCMA on cells
As to the kind of experiment: flow cytometry, CHOK1 cells transiently expressing cynomolgus BCMA.

In experiment [17] the target is T8, His-tagged mouse BCMA (Acro Biosystems, …). Kind of experiment: BLI, His-tagged mouse BCMA on HIS1K tip; R2 0.2661, below the filing's cut-off of 0.9.
For experiment [18], the target named is T5, recombinant his-tagged human TACI …. As to the kind of experiment: ELISA, coated His-tagged human TACI. The source holds these as a separate data set.
The target in experiment [19] is T2, His-tagged cynomolgous macaque BCMA …. As to the kind of experiment: ELISA, coated His-tagged cynomolgus BCMA.
The target is the same in experiment [20]. Kind of experiment: BLI, His-tagged cynomolgus BCMA on HIS1K tip.
In experiment [21] the target is T6, human BCMA expressed on cells. As to the kind of experiment: flow cytometry, H929 cells (BCMA-expressing).
For experiment [22], the target named is T7, His-tagged human BCMA (Acro Biosystems, …). Kind of experiment: BLI, His-tagged human BCMA on HIS1K tip; R2 0.9928.
The target in experiment [23] is T2, His-tagged cynomolgous macaque BCMA …. As to the kind of experiment: BLI, His-tagged cynomolgus BCMA on HIS1K tip; R2 0.9552.
The target in experiment [24] is T7, His-tagged human BCMA (Acro Biosystems, …). Kind of experiment: BLI, His-tagged human BCMA on HIS1K tip, no APRIL; R2 0.9928.
Experiment [25] has as its target T9, cynomolgous macaque BCMA expressed on …. Kind of experiment: flow cytometry, CHOK1 cells transiently expressing cynomolgus BCMA. This is another data set of the same source.
For experiment [26], the target named is T7, His-tagged human BCMA (Acro Biosystems, …). As to the kind of experiment: BLI, His-tagged human BCMA on HIS1K tip; R2 0.9939.
Experiment [27] addresses T2, His-tagged cynomolgous macaque BCMA …. Kind of experiment: BLI, His-tagged cynomolgus BCMA on HIS1K tip; R2 0.9296.
Experiment [28] addresses T7, His-tagged human BCMA (Acro Biosystems, …). As to the kind of experiment: BLI, His-tagged human BCMA on HIS1K tip, no APRIL; R2 0.9939.
In experiment [29] the target is T10, BCMA:APRIL 1:1 (human, UniProt Q02223;O75888).
T10 construct: His-tagged recombinant;recombinant; also called human BCMA after incubation with human APRIL
T10 sequence (receptor, looked up): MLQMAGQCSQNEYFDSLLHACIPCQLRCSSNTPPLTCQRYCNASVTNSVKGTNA
T10 sequence (ligand, looked up): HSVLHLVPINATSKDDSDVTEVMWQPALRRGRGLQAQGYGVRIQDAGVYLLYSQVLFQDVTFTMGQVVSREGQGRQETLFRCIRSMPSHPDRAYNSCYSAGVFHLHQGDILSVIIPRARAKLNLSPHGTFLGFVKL
As to the kind of experiment: BLI, His-tagged human BCMA on tip, then human APRIL 3000 nM, then IgG; R2 0.9805.

Where two headings read alike, the source gives them in different places.

B1: 1C8-6A3 hIgG1 (antibody, V domains shown)
VH: QVQLVQSGAEVKKPGASVKVSCKASGYTFTNYVMHWVKQKPGQGLEWMGYILPYNDGTKYAQKFQGKVTMTSDKSTSTVYMELSSLTSEDTAVYYCARYDYEGSFDYWGQGTLVTVSS
VL: DIQMTQSPSSLSASVGDRVTITCRASQDISNYLNWYQQKPGKAPKLLMCYTSRLHSGVPSRFSGSGSGTDFTLTISSLEQEDFATYYCQQGNTFPPTFGGGTKVEIKR
notes: also called [94]; hu1C8
For the molecule B1, the binding result in experiment [1] was “no binding (tested: 3 µg/ml (highest concentration))”; in [2] it was “binds”. Also, the EC50 in [3] is 0.028 nM; in [4], 0.005 nM; in [5] it was 1.32 nM; in experiment [6], 0.111 nM; in experiment [7], 0.238 nM.

B2: 1C8-402 hIgG1 (LALA) (antibody)
heavy: not shown
light: DIQMTQSPSSLSASVGDRVTITCRASQDISNYLSWYQQKPGKAPKLLMRYTSRLHSGVPSRFSGSGSGTDFTLTISSLEQEDFATYYCQQGNLFPPTFGGGTKVEIKRTVAAPSVFIFPPSDEQLKSGTASVVCLLNNFYPREAKVQWKVDNALQSGNSQESVTEQDSKDSTYSLSSTLTLSKADYEKHKVYACEVTHQGLSSPVTKSFNRGEC
notes: also called S1
For B2, the binding result in experiment [8] is recorded as “binds”.

B3: 539-SP2-H3 hIgG1 (antibody, V domains shown)
VH: EVQLQQSGPELVKPGASVKMSCKASGYTFTSYVIHWVKQKPGQGLEWIGYVLPYNDVIKYNEKFKGKATLTSDKSSSTAYMDLSSLTSEDSAVYYCARWGDFDEGIWFPYWGQGTLVTVSA
VL: DVLMTQTPLSLPVSLGDHASVSCRSSQSIVHTDGNTYLEWYLQKPGQSPKLLIYKVSNRFSGVPDRFSGSGSGTDFTLKISRVEAEDLGVYYCFQGSHVPWTFGGGTKLEIKR
notes: Human-mouse chimeric antibody, human IgG1 format
On to B3, for which the figures for the 50% effective concentration (EC50 (read off the curve)) in [9], in [10] and in [14] were ~0.01 µg/mL, ~0.7 µg/mL and ~0.06 µg/mL, respectively. In addition, the “Human BCMA response” value in [11] came to 2.36. In experiment [12], the “Mouse BCMA response” value is 0.29. The Kd was < 0.001 nM in experiment [13], < 0.001 nM in experiment [15] and 7.25 nM in [17]. In addition, the binding result in [16] was “binds”.

B4: 552-LN2-E6 hIgG1 (antibody, V domains shown)
VH: QIQLVQSGPELKKPGETVKISCMASGYTFTDYSVRWVKQAPGKGLEWMGWINTETGEPTYADDFKGRFAFSLETSASTAYLQINNLKNEDTATYFCAISYYYALDYWGHGTSVTVSS
VL: DIVLTQSPASLTVSLGQRATISCRASKSVSTSVYSFLHWYQQKPGQPPKLLIYLASNLESGVPARFSGSGSGTDFTLNIHPVEEEDAATYYCQHSRELPRTFGGGTKLEIKR
notes: Human-mouse chimeric antibody, human IgG1 format; also called [8]
On to B4, for which the binding result is “no binding (tested: 10 ug/ml)” in experiment [18] and “binds” in [25]. For the same molecule, in [11], the “Human BCMA response” value amounted to 2.37. Further, the results for the “EC50 (read off the curve)” value in [19] and in experiment [21] were ~0.08 µg/mL and ~0.3 µg/mL, respectively. In addition, in experiment [20], the “Cyno BCMA response” value came out at 1.55. For the same molecule, the Kd in experiment [22] is < 0.001 nM; in [23], 38.5 nM; in [24] it was < 0.001 nM.

B5: 552-LN1-F4 hIgG1 (antibody, V domains shown)
VH: QIQLVQSGPELKKPGETVKISCMASGYTFTDYSVRWVKQAPGKGLEWMGWINTETGEPTYAHDFKGRFAFSLETSASTAYLQINNLKDEDTSTYFCAISYYYALDYWGHGTSVTVSS
VL: DIVLTQSPASLTVSLGQRATISCRASKSVSTSGYNFLHWYQQKPGQPPKLLIYLASNLESGAPARFSGSGSGTDFTLNIHPVEEEDAATYYCQHSRELPRTFGGGTKLEIKR
notes: Human-mouse chimeric antibody, human IgG1 format; also called [7]
For the molecule B5, the figures for the binding result in experiment [18] and in experiment [25] were “no binding (tested: 10 ug/ml)” and “binds”, respectively. The “Human BCMA response” value in experiment [11] is 2.33. Moreover, in [20], the “Cyno BCMA response” value was determined as 0.918. The “EC50 (read off the curve)” value in [21] is ~0.2 µg/mL. Further, the dissociation constant (Kd) in experiment [26] was < 0.001 nM; in experiment [27], 71 nM; in experiment [28], < 0.001 nM; in experiment [29], 9.61 nM.

The term EC50 denotes the concentration that produces a half-maximal response. The EC50 (read off the curve) is the concentration at which the effect is half-maximal. As a reminder, the Kd is a measure of binding affinity in units of concentration. Low values mean tighter binding, high ones weaker binding.
